A short description of this data set: soluble on expression in E. coli; label from the status in PepcDB or PDB records.
For the sequence “MCGIFAYLNFLAPKKRSEIVDILVQGLQRMEYRGYDSAGIAIDGSNDIENPHSKIALLRKRGKVSVLNDYIKENNEKLNMDMEYNIHCGIAHTRWATHGSPRDVNSHPHRSNDNNEFLVVHNGIITNYREIKEYLEKKGHKFESETDTEVIAKLTQHVHDRYPDFSFRQLVETVIQQLEGAFALAFKSSRFPGQLVASRRGSPLLVGIKSNSTLHTSHFPVSYSKGRCFMSNNATHLREETSFVETPNNILDLSIAVRNPSGSAKLPDNNSTTRPFDSTDFEVEYFIASDAAAIIEHTKQVLFLEDDDVAFVEDGSLTIHRISRHADSGEQKREVQLLELEIQEIMKGSYKTFMQKEIFEQPESVVNTMRGRVLPSGQVVLGGLKEYLPAIKRCRRLIMVACGTSYHSAIACRQVLEELSELPVVVELASDFLDRETPIFRNDVCLFISQSGETADTLMALRYCKPRGALTIGVTNTVGSSIGRESHCGIHINAGPEIGVASTKAYTSQIVSLLLFALTISEDRISKMKRRAEIIDALNNLPILIRDVLDLDDQVLKIAEQIYKDKSLLIMGRGLNFATCLEGALKIKELSYMHCEGIMSGELKHGPLAMVDEFLSICMVVCNDHVYKKSLNALQQVVARKGAPIIIADSSVPESDLAGMKHVLRVPRTVDCVQNILTVIPLQLLSYHIAELNGANVDRPRNLAKSVTVE”, the “soluble on expression in E. coli” value was “not soluble”. In the case of “TEKFTWNTNVSYSTNSNKVVALSSEKFSMDQDYFYTGYTGEPIQTTTHIVQVGKPIGTFYGLKSVDITDDGLWLVENKKGEHVLAEETDATDWQVLGNGIPKHYLNWNNTFNFFNFDLSINMRGAFGFQILNYQRMYYENAKPEIQYNRLNSAFDKVYGKTQLKDDQRYVSYYVEDGDYWKIDNVTLGYTFKLSKQHIIKNLRIYASVLNLATITGYKGMDPEVPLSSNTYGLLDAGTDNRDKYPTNRTYTFGVNLTF”, the “soluble on expression in E. coli” value is recorded as “not soluble”. Next, “MPAVSKGDGMRGLAVFISDIRNCKSKEAEIKRINKELANIRSKFKGDKALDGYSKKKYVCKLLFIFLLGHDIDFGHMEAVNLLSSNRYTEKQIGYLFISVLVNSNSELIRLINNAIKNDLASRNPTFMGLALHCIANVGSREMAEAFAGEIPKILVAGDTMDSVKQSAALCLLRLYRTSPDLVPMGDWTSRVVHLLNDQHLGVVTAATSLITTLAQKNPEEFKTSVSLAVSRLSRIVTSASTDLQDYTYYFVPAPWLSVKLLRLLQCYPPPEDPAVRGRLTECLETILNKAQEPPKSKKVQHSNAKNAVLFEAISLIIHHDSEPNLLVRACNQLGQFLQHRETNLRYLALESMCTLASSEFSHEAVKTHIETVINALKTERDVSVRQRAVDLLYAMCDRSNAQQIVAEMLSYLETADYSIREEIVLKVAILAEKYAVDYTWYVDTILNLIRIAGDYVSEEVWYRVIQIVINRDDVQGYAAKTVFEALQAPACHENLVKVGGYILGEFGNLIAGDPRSSPLIQFNLLHSKFHLCSVPTRALLLSTYIKFVNLFPEVKATIQDVLRSDSQLKNADVELQQRAVEYLRLSTVASTDILATVLEEMPPFPERESSILAKLKKKKGGS”: “soluble”. The entry for “AHHHHHHGSAEMVIPYPHLQRILEKTCELAVTKPMAERMMEIVERKLADLFEVAYENATAENSETIKMRHIPITKGFRSSMNLFRAVIEDENIKIEPILDYVLRKIPADKPLEEEVINELPIITGTLFVLIGRVIKALHPEVRNVYPEHIEEAEKVLDYTL” is “soluble”; for “MVDFYYLPGSSPCRSVIMTAKAVGVELNKKLLNLQAGEHLKPEFLKINPQHTIPTLVDNGFALWESRAIQVYLVEKYGKTDSLYPKCPKKRAVINQRLYFDMGTLYQSFANYYYPQVFAKAPADPEAFKKIEAAFEFLNTFLEGQDYAAGDSLTVADIALVATVSTFEVAKFEISKYANVNRWYENAKKVTPGWEENWAGCLEFKKYFE” it is “soluble”; for “MGSLYTSELSRAVSESVAAALQRSFQGELRSASALGSGWSTSAELLNRNDSTERYFVKLSEPQAVSMFSAEFEGIQAMAESETVRVPAPICYGNTAERSFIVLEYLELGGIGNEAVYRDFGEKLAAMHRCSSGGRGYGWHRGNTIGSTPQLNTWMHSWADFFVENRLRYQLKLARSRQGGRLRNEDALLQRVHSVLQEHEIQHQVTPSLVHGDLWTGNVATLRNQNEVVIFDPATYYGDREVDLAMTELFGRLPRAFYQAYDASWPLPKGYREKRRVIYNLYHILNHGALFGGGYYDQAQSMIETILR” it is “soluble”. The entry for “GPGSMGLTQDQTQRVKTAFLSYAQGQPKVSEAMMDQLICGAIPGLSWEQLQAKKAVRKVGADGYDLGAFFAMVNSDPAYIAFIQQHFPPAPPEQKEPEVDALALKTAKGF” is “soluble”.

“MAHHHHHHMQLKERLQQWRERGLQGADVDPPVQRPRSFRPSCIVPRLYLGAAKDVQDVRTLRSRLLPDKLLMVVSTCDPSDPPRMELRQIAPTKGTAYTVKRLAVCSWEELEKRVVTSSFCCRLPRNEVMVATAEWLKEVLKTKSLPPVSLEECRDVQKGETDGKVSEVFEEGLYLKLCLPWKDESNFTVRPYFAVATALIHATMDGIQGAVVCYCMAGKSRSATLTCALLLYCCYDNVGRPKDEEECSAYKAVQAVVEFVREVRLCVSPNEGFIEQLRDYASDLLAV”: the “soluble on expression in E. coli” value is reported as “not soluble”. Next, “AQRDVLAVLPQLNAVQNLAGDAPSWAEGYGLYQGDMLGEESASVYRKLLIAVFAPRLVTRIEEQLRSGGSSDFLYEGLKAYLMLGSPDHYDADFIKAWISLDWERNLPRDLSPEQRQALHAHLDALLERRPPSARLDQDLVEDLRRQLQQLPVAQRVYDRVKRQRLPKDVPDFRISDAAGRDAPLVFARKSGKPLTDPLSGFFTYRGYREVFLTASLSQAGTIAEEQWVLGRDLNDAGDAANLALDVRRLYFQDYLRQWDDLLADLTVVPITNVTQAADVLRILSGPTSPFRKLLEAVARETDLQKGDRLVAAQVKKAADGTVDKLKQRLGSLVGQEEEG”: “not soluble”; “MGSDKIHHHHHHMTMPTNQCPWRMQVHHITQETPDVWTISLICHDYYPYRAGQYALVSVRNSAETLRAYTISSTPGVSEYITLTVRRIDDGVGSQWLTRDVKRGDYLWLSDAMGEFTCDDKAEDKFLLLAAGCGVTPIMSMRRWLAKNRPQADVRVIYNVRTPQDVIFADEWRNYPVTLVAENNVTEGFIAGRLTRELLAGVPDLASRTVMTCGPAPYMDWVEQEVKALGVTRFFKEKFFTPVAEAATSGLKFTKLQPAREFYAPVGTTLLEALESNNVPVVAACRAGVCGCCKTKVVSGEYTVSSTMTLTDAEIAEGYVLACSCHPQGDLVLA”: “not soluble”. Next, “MGSDKIHHHHHHLNNCGMVAWIMTLYTPEKPRGFDLIVIGNDVTFQSGSFGTAEDDLFAAASTYSREHKLPRVNVSVNSGARIGLSTKISKLVKLQLENEDKPEQGFEYIYIDGEHKAQIEGEVVYEELGNGRLKILAVIGAKNEKIGVENLQGSGLIAGETARAYAEVPTYCYVTGRSVGIGAYTARLAHRIVQHKQSHLILTGYEALNTLLGKKVYTSNNQLGGPEVMFRNGVTHAVVDNDLEGIAKVIRWMSFLPTPTEEFPFFSKHGDDCSARDVVIPSDSEQNTYDVRDLIDSKNLSNQTGICDTMSFDEICGDWAKSIVAGRARLCGIPIGVVSSEFRNFSTIVPADPAIDGSQVQNTQRAGQVWYPDSAFKTAEAINDLNKENLPLMIIASLRGFSGGQKDMYDMVLKFGAQIVDALAVYNRPVIVYIPEAGELRGGAWAVLDSKIRPEFIHLVADEKSRGGILEPNAVVGIKFRKPMMMEMMKRSDPTYSKLSSSTEPEAREQLEERYEELSKTYRNASVEFADAHDRWQRMKSVGVVEHVTSLTNSRRLFSELLRNEL”: “not soluble”. The entry for “MGSDKIHHHHHHMSMSVQQIDWDLALIQKYNYSGPRYTSYPTALEFSEDFGEQAFLQAVARYPERPLSLYVHIPFCHKLCYFCGCNKIVTRQQHKADQYLDALEQEIVHRAPLFAGRHVSQLHWGGGTPTYLNKAQISRLMKLLRENFQFNADAEISIEVDPREIELDVLDHLRAEGFNRLSMGVQDFNKEVQRLVNREQDEEFIFALLNHAREIGFTSTNIDLIYGLPKQTPESFAFTLKRVAELNPDRLSVFNYAHLPTIFAAQRKIKDADLPSPQQKLDILQETIAFLTQSGYQFIGMDHFARPDDELAVAQREGVLHRNFQGYTTQGDTDLLGMGVSAISMIGDCYAQNQKELKQYYQQVDEQGNALWRGIALTRDDCIRRDVIKSLICNFRLDYAPIEKQWDLHFADYFAEDLKLLAPLAKDGLVDVDEKGIQVTAKGRLLIRNICMCFDTYLRQKARMQQFSRVI” is “not soluble”. “MGSDKIHHHHHHMLKFGTAGIPINAKNTESALEYLKEIKLDAMELEFVRGVNLKAEKAESLAKNLKITLSAHAPYYINLNAKEPEKIESSIKRIVDSAKIISIFNKKNSENKNVVFHSGFYLKQDKDLVYEKIKVNIQKILKIMDENKINAILRPETTGKISQFGSIDELIQLSTEIDIMPCIDFSHVYARSLGKINDYDSFSNILSKLENNLGKKGIKDMHIHISGIDFGNGGEKKHFPILNSEFNYMAVLKALKDFECSGTVICESPKLEYDAVILKKNYEEL”: the “soluble on expression in E. coli” value is recorded as “not soluble”. The entry for “MGSDKIHHHHHHMHIPPFDNQNQAIVGEGDAHVPLTYFNIVKLKEGEAYDYRLKGYETCIVPATGTVDVEVGGEVFADIGNRCVDVWDGDPEGVYVPTNVGAHITARTDAEIFVAGAQFTETLTPFAVRAGELDLVQYGSDETKTHRKIKHILGAGHHDRVGRLLVSELFTVGAGGWSGFPSHKHDTDRLPDETRHDECYNFRFKPDYGSGLQMLQREDNEPGDAYHIMNGSTVLIDKGYHPCCALPGYEMYYFTILGGLSQRSLKQYFQPTHSEQLHTIPGIMDMVAKFK” is “not soluble”.

For “RRRFDEKRREMLMGKLEEINQKRIAEALESEKKSLEKVSRSDQLRIDLITNVSHDLKTPLTSMVGYIELIKKEELSDLVRDYVDVLSERAEKLKEMINSLFSLAKASSGNIELHPEKFELNRLVEQIFADMHDHVKESELQFVKQFTEENTEIISDNMYFYRICQNLIENALKYSAKHTRVFVKTYQKESSNHLCLEITNTAGYPMDFTKEEIIERFFRGDKQRSSEGNGLGLAIVSTYVKALGGEFDIKIDCDQFKACVEMPLSAITIT”, the “soluble on expression in E. coli” value is listed as “not soluble”. Next, “MSLTASVAAAPDPASLAPELAHIAPALKAEILAQALPYIRKFHGKTIVIKYGGNAMTEEKLKHGFARDVILLKLVGMNPVVVHGGGPQIDDALKKVGKTGTFIQGMRVTDEETMEVVEWVLGGEVQQDIVMLINQYGGQAVGLTGKDGGLIRAKKLQMPDREKPGQFIDIGFVGDIETINPAVVRALQDDAFIPVISPIGFSDDGQAYNINADVVAGKMAEILKAEKLVMMTNIPGVLDKQGNLLTDLSAREIDELFADGTISGGMLPKISSALDAAKSGVHSVHIIDGRIEHSLLLEILTEQAFGTMIRSHEGHHHHHH”: “soluble”.
